Values belong to the molecule of their own block, whether it stands above or below them.
Assays:
[1] = target: T1, myofibril associated μ-calpain (Mus musculus, UniProt O35350); assay: Calpain inhibition of cTnT-ND production in TRITON X-100 extracted ventricular muscle strips (Western blot densitometry); assay type: biochemical; conditions: 100 μM hydrogen peroxide
T1 construct: To test whether endogenous calpain in the cardiac muscle contributes to TnT NH2-terminal modification; from tissue
T1 sequence (O35350 1-713): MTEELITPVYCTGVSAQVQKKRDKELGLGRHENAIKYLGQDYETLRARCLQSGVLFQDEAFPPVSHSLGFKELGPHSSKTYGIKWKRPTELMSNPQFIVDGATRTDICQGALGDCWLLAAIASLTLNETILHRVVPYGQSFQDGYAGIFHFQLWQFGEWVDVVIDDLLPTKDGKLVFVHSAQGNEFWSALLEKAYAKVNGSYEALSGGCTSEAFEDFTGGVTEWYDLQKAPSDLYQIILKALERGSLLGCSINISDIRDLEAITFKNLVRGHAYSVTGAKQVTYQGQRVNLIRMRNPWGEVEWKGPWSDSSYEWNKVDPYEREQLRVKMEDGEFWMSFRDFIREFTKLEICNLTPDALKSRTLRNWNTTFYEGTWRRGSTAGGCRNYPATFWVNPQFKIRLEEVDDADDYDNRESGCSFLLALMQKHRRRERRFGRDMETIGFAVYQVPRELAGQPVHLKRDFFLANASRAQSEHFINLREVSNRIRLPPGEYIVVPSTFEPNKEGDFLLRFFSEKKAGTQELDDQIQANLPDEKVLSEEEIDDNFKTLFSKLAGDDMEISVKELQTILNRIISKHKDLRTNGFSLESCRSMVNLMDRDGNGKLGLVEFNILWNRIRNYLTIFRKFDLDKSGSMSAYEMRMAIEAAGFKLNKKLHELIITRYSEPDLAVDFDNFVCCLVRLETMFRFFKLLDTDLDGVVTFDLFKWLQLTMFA
T1 sequence (O88456 1-268 partner): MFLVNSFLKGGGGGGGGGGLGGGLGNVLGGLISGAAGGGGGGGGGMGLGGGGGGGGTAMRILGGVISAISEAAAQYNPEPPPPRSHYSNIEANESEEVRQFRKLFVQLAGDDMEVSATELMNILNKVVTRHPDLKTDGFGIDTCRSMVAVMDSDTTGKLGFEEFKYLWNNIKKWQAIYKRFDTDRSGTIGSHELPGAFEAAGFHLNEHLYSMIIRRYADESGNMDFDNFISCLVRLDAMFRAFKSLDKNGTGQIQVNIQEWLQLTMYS
Experimental: (§1) SDS-PAGE and Western blotting. Ventricular muscle tissues or myocytes were homogenized in Laemmli SDS-PAGE sample buffer containing 2% SDS, heated at 80° C. for 5 min, and clarified by centrifugation. Total protein extracts were resolved by 14% Laemmli gel with an acrylamide:bisacrylamide ratio of 180:1 (low cross linker) or by 15% Laemmli gel with an acrylamide:bisacrylamide ratio of 29:1 (high cross linker). The gels were stained with Coomassie Brilliant Blue R250 to reveal the resolved protein bands. Duplicate gels were electrically blotted to nitrocellulose membranes, as described previously (21). After blocking in Tris-buffered saline (TBS) containing 1% bovine serum albumin (BSA), the membrane was incubated with anti-TnT mAbs CT3, 2C8, or polyclonal antibody RATnT. The membranes were then washed with high stringency using TBS containing 0.5% TRITON® X-100 and 0.05% SDS, incubated with alkaline phosphatase-conjugated anti-mouse IgG or anti-rabbit IgG second antibodies (Sigma), washed again, and developed in 5-bromo-4-chloro-3-indolylphosphate/nitro blue tetrazolium substrate solution, as described previously (21).
TRITON® X-100 extraction of ventricular muscle strips. In an ice container, ventricular muscle was cut with a sharp razor blade into fine pieces approximately the size of isolated trabeculae. The muscle strips were washed in relaxing solution containing […], 2 mM MgCl2, 2 mM EGTA, 10 mM Tris, 0.5 mM DTT, 0.1 mM PMSF and 2 mM Na4P2O7. After centrifugation at 2,800×g at 4° C. for 15 min, the pellet was skinned in relaxing solution plus 0.5% (w/w) TRITON® X-100 at 4° C. with rotation for 10 min. After centrifugation at 14,000×g at 4° C. for 20 min, the pellet was suspended in relaxing solution without TRITON® X-100 and incubated at 37° C. with rotation. Samples were collected at a series of time points for SDS-PAGE and Western blotting to examine the modifications of cTnT and other myofibrillar proteins.
Calpain inhibition. To test whether endogenous calpain in the cardiac muscle contributes to TnT NH2-terminal modification, several different calpain inhibitors were applied to the TRITON® X-100 extraction procedure. […] TRITON® X-100 treatment of mouse ventricular muscle strips was carried out as above in the presence or absence of 100 μM hydrogen peroxide and the effect on cTnT modification was examined by Western blotting.
The effects of two cell membrane-permissible nonpeptide calpain inhibitors, PD 150606 and PD 151746 (Calbiochem), were also tested. […] PD 150606 and […] were separately added to the relaxing solution before TRITON® X-100 treatment and incubated with the minced ventricular muscle at 4° C. for 10 minutes to allow the inhibitor to penetrate cell membrane and bind to calpain. After TRITON® X-100 extraction, samples were collected for SDS-PAGE and Western blotting to examine the effect on cTnT modification.

bovine cardiac TnI = target: T2, bovine cardiac TnI (Bos taurus, UniProt P08057); assay: ELISA solid phase protein binding of immobilized cTnT to TnI; conditions: for EC50: immobilized mouse cTnT, mean ± SD, read-out: concentration of TnI required to reach 50% of maximum binding; for change in binding to TnI on decrease of pH: pH from 7.0 to 6.2
T2 construct: Bovine cardiac TnI was purified from ventricular muscle as described previously (19); from tissue; host or cells: bovine ventricular muscle
Experimental: (§2) Protein binding assays. Enzyme-linked immunosorbant assay (ELISA) solid phase protein binding experiments (21) were performed to investigate the interactions of the NH2-terminal truncated cTnT with TnI and tropomyosin. Purified intact and NH2-terminal truncated mouse cTnT or BSA control were dissolved at 5 μg/mL in Buffer A (0.1 M KCl, 3 mM MgCl2, 20 mM PIPES, pH 7.5) and coated onto 96-well microtiter plates by incubation at 4° C. overnight. After washes with Buffer T (Buffer A containing 0.05% polyoxyethylene 20 (TWEEN®20)) at pH 7.5 to remove the unbound protein, the plates were blocked with Buffer T at pH 7.0 or 6.2 containing 1% BSA. The immobilized cTnT was incubated with serial dilutions of bovine cardiac TnI or rabbit α-tropomyosin in Buffer T (at the blocking pH) containing 0.1% BSA at room temperature for 2 hours. After one wash with Buffer T of the blocking pH and two washes with Buffer T at pH 7.0, the bound TnI or tropomyosin was quantified via incubation at pH 7.0 and room temperature for 1 hour with the anti-TnI mAb TnI-1 (46) or an anti-tropomyosin mAb CH1 (47), respectively. The plates were then processed by a standard ELISA procedure, including pH 7.0 Buffer T washes, horse radish peroxidase-conjugated anti-mouse immunoglobulin second antibody (Sigma) incubation, and H2O2/2,2′-azinobis-(3-ethylbenzthiazolinesulfonic acid) substrate reaction (21). A405 nm of each assay well was recorded at a series of time points by an automated microtiter plate reader (BioRad Benchmark). The A405 nm values in the linear course of the color development were used to plot the protein binding affinity curves. All experiments were done in triplicate.

rabbit α-tropomyosin = target: T3, rabbit α-tropomyosin (Oryctolagus cuniculus, UniProt P58772); assay: ELISA solid phase protein binding of immobilized cTnT to tropomyosin; conditions: for EC50: immobilized mouse cTnT, mean ± SD, read-out: concentration of tropomyosin for 50% maximum binding; for change in binding to tropomyosin on decrease of pH: pH from 7.0 to 6.2
T3 construct: Rabbit α-tropomyosin was purified from ventricular muscle as described previously (44); from tissue; host or cells: rabbit ventricular muscle
Experimental: as §2

[2] = test system: cTnT in bovine cardiac myofibrils; assay: μ-Calpain treatment of cardiac myofibrils (mAb CT3 Western blot densitometry); assay type: biochemical; conditions: 20 U/ml μ-calpain
Experimental: as §1
Mu-Calpain treatment of cTnT. […] The samples were analyzed by SDS-PAGE and Western blotting as described above. […]

cTnT-ND production reduced to ([1]; TRITON X-100 extracted exon 7-deleted transgenic mouse ventricular muscle strips): 65% | decrease in cTnT-ND72-291 ([1]; TRITON X-100 treated mouse ventricular muscle strips): approximately 35%
Molecule: OO [hydrogen peroxide]

maximum binding to TnI, compared with intact cTnT (bovine cardiac TnI; FIG. 12A insert): No significant difference | EC50 (bovine cardiac TnI): 8.73 ± 1.15 nM | change in binding to TnI on decrease of pH (bovine cardiac TnI): did not result in significant change | level of maximum binding to tropomyosin, compared with intact cTnT (rabbit α-tropomyosin; FIG. 12B insert): not significantly changed | EC50 (rabbit α-tropomyosin): 9.73 ± 0.185 nM | change in binding to tropomyosin on decrease of pH (rabbit α-tropomyosin): did not result in significant change
Molecule: cTnT ND: NH2-terminal truncated mouse cardiac troponin T lacking amino acids 1-71, expressed in E. coli

EC50 (bovine cardiac TnI): 15.3 ± 1.36 nM | change in binding to TnI on decrease of pH (bovine cardiac TnI): did not result in significant change | EC50 (rabbit α-tropomyosin): 13.5 ± 1.38 nM | change in binding to tropomyosin on decrease of pH (rabbit α-tropomyosin): did not result in significant change
Molecule: intact cTnT: intact mouse cardiac troponin T (TnT4) expressed in E. coli

B1: μ-calpain: calcium activated cysteine protease (Calbiochem) used to treat cTnT, troponin complex and myofibrils (protein, UniProt P07384 2-714, looked up)
Calpain-1 catalytic subunit: SEEIITPVYCTGVSAQVQKQRARELGLGRHENAIKYLGQDYEQLRVRCLQSGTLFRDEAFPPVPQSLGYKDLGPNSSKTYGIKWKRPTELLSNPQFIVDGATRTDICQGALGDCWLLAAIASLTLNDTLLHRVVPHGQSFQNGYAGIFHFQLWQFGEWVDVVVDDLLPIKDGKLVFVHSAEGNEFWSALLEKAYAKVNGSYEALSGGSTSEGFEDFTGGVTEWYELRKAPSDLYQIILKALERGSLLGCSIDISSVLDMEAITFKKLVKGHAYSVTGAKQVNYRGQVVSLIRMRNPWGEVEWTGAWSDSSSEWNNVDPYERDQLRVKMEDGEFWMSFRDFMREFTRLEICNLTPDALKSRTIRKWNTTLYEGTWRRGSTAGGCRNYPATFWVNPQFKIRLDETDDPDDYGDRESGCSFVLALMQKHRRRERRFGRDMETIGFAVYEVPPELVGQPAVHLKRDFFLANASRARSEQFINLREVSTRFRLPPGEYVVVPSTFEPNKEGDFVLRFFSEKSAGTVELDDQIQANLPDEQVLSEEEIDENFKALFRQLAGEDMEISVKELRTILNRIISKHKDLRTKGFSLESCRSMVNLMDRDGNGKLGLVEFNILWNRIRNYLSIFRKFDLDKSGSMSAYEMRMAIESAGFKLNKKLYELIITRYSEPDLAVDFDNFVCCLVRLETMFRFFKTLDTDLDGVVTFDLFKWLQLTMFA
NH2-terminal truncated cTnT (cTnT ND) as share of total cTnT (truncated plus intact) ([2]; 0% at 0 U/ml): 98% | intact cTnT remaining ([2]; 100% at 0 U/ml): 1.5%

Source: patent US8008021B2, “N-terminal truncation of cardiac troponin subunits and their roles in cardiovascular disease” (Evanston Northwestern Healthcare, priority 2006, dated 2011)
